In patent publication CN115594767A:

Legend:
CD16A-158V = CD16A-158V (UniProt P08637); experiment: BLI, CD16A-158V on anti-his probe, antibody as analyte
[1] = biological target: HER2 (Human epidermal growth factor receptor 2) (human) (UniProt P04626); experiment: ELISA, HER2 coated at 1 ug/mL, HRP-anti-human IgG Fc detection

Sequence of UniProt P08637 (P08637 17-208 F176V limits assumed): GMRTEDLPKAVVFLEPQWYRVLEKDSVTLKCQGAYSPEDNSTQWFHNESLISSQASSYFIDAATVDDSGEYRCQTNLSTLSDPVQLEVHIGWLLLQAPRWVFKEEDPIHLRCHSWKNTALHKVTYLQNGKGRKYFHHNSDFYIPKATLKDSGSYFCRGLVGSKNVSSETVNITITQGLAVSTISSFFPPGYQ

KN026 (bispecific antibody)
Kd (CD16A-158V): 464000 pM
koff (CD16A-158V): 0.0782 s⁻¹
kon (CD16A-158V): 168000 M⁻¹ s⁻¹
EC50 [1]: 150 pM

MGAH22 (antibody)
EC50 [1]: 127 pM
